The text below walks through data of patent publication US20260217820A1 (ERASMUS UNIVERSITY MEDICAL CENTER ROTTERDAM, published 2026).

For assay [1], the target named is T1, CD117 protein (SinoBiological, cat #11996-H08H) (UniProt P10721-2 26-516).
T1 construct: Bought reagent
In words: ELISA on plate-coated CD117 protein, detection with anti-human IgG (Fc specific)-peroxidase, OD at 450 nm. In general terms: In an ELISA, binding on a coated surface is turned into a signal by an enzyme label.

In assay [2] the target is T1, CD117 protein (SinoBiological, cat …). In words: ELISA, CD117 protein coated.
Assay [3] has as its target T2, Human CD16a (V176) protein (NovoProtein, cat #C441) (human, UniProt P08637 17-208).
T2 construct: also called CD16a receptor
In words: BLI (Octet Red 96e), CD16a (V176) on HIS1K sensors, antibody in solution, 1:1 global fit. For orientation: BLI is a label-free optical method that tracks binding on a fibre tip over time.

Assay [4] addresses T3, Rhesus Macaque CD117 on CD34-enriched bone marrow hematopoietic stem cells (Rhesus Macaque, UniProt F6V858 26-976).
T3 construct: whole, on cells; also called CD117 of Rhesus Macaque; Rhesus Macaque CD117-positive hematopoietic stem cells
Kind of assay: flow cytometry on Rhesus Macaque CD34-enriched bone marrow cells gated on CD34+ CD117+, R-Phycoerythrin goat anti-human F(ab')2 detection. For orientation: Flow cytometry measures light scatter and fluorescence of single cells or particles in a stream.

T2 sequence (P08637 17-208 F176V limits assumed): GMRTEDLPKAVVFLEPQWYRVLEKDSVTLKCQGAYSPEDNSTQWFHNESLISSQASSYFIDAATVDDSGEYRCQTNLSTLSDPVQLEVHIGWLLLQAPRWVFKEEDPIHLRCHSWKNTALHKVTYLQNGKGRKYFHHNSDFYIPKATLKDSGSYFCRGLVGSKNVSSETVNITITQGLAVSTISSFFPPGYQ
T1 sequence (P10721 other isoform, or with tags, fused parts or gaps H08H H08H limits assumed): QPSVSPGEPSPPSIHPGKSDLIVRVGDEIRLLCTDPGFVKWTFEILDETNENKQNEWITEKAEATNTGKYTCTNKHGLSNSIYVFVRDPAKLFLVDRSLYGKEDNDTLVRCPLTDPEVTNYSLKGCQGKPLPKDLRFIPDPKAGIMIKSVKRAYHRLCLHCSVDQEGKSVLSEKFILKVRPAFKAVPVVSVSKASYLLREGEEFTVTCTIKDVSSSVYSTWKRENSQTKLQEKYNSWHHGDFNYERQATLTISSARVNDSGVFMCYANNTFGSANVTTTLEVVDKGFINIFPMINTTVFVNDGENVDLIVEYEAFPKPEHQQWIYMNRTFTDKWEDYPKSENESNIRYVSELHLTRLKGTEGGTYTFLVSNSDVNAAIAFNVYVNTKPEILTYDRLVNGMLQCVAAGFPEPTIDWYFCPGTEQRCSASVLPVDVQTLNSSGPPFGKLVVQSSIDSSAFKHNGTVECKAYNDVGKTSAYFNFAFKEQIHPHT

B1: recombinant monoclonal antibody PR004382 (antibody, human IgG1, kappa)
heavy: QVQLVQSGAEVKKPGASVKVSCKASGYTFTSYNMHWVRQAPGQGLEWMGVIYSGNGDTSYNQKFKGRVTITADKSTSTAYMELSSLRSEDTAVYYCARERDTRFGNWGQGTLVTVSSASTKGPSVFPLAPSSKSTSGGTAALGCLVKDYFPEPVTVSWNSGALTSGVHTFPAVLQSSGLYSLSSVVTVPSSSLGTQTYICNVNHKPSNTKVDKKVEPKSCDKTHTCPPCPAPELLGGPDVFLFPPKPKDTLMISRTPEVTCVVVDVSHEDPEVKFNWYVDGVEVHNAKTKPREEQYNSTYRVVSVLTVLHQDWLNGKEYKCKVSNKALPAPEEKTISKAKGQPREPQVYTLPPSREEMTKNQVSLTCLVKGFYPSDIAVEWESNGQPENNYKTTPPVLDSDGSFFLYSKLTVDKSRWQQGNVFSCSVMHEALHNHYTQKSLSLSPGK
light: DIVMTQSPDSLAVSLGERATINCRASESVDIYGNSFMHWYQQKPGQPPKLLIYLASNLESGVPDRFSGSGSGTDFTLTISSLQAEDVAVYYCQQNNEDPYTFGGGTKVEIKRTVAAPSVFIFPPSDEQLKSGTASVVCLLNNFYPREAKVQWKVDNALQSGNSQESVTEQDSKDSTYSLSSTLTLSKADYEKHKVYACEVTHQGLSSPVTKSFNRGEC
notes: compared with a human IgG1 isotype control; also called PR004382 anti-CD117 antibody; copies: 2 + 2
One may read the EC50 (read off the curve) as the concentration needed to bring the measured effect to its halfway point. Read a low EC50 (read off the curve) as greater potency. The EC50 is the concentration at which the effect is half-maximal. A higher EC50 goes with weaker potency. As usually defined, the Kd is a measure of binding affinity in units of concentration. As a reminder, the koff is a measure of how fast the partners let go of each other. By kon is commonly meant a measure of how fast the partners come together. A lower kon goes with slow association. On to B1, for which, in assay [1], the “EC50 (read off the curve)” value was around 0.1 nM. A half-maximal effect in assay [2] (EC50) was put at 0.0155 nM. In assay [3], this molecule came in with a Kd of 27.2 nM, a koff of 0.00933 s⁻¹ and a kon of 343000 M⁻¹ s⁻¹.

B2: PR001310 anti-HELxCD3 control Bispecific T cell engager (bispecific antibody)
chain: DIVLTQSPAIMSASPGEKVTMTCSASSSVNYMYWYQQKSGTSPKRWIYDTSKLASGVPVRFSGSGSGTSYSLTISSMETEDAAEYYCQQWGRNPTFGGGTKLEIKRTVAAPSVFIFPPSDEQLKSGTASVVCLLNNFYPREAKVQWKVDNALQSGNSQESVTEQDSKDSTYSLSSTLTLSKADYEKHKVYACEVTHQGLSSPVTKSFNRGECEVQLVESGGGLVQPGGSLKLSCAASGFTFNTYAMNWVRQASGKGLEWVGRIRSKYNNYATYYADSVKDRFTISRDDSKSTLYLQMNSLKTEDTAVYYCVRHGNFGNSYVSWFAYWGQGTLVTVSSASTKGPSVFPLAPSSKSTSGGTAALGCLVKDYFPEPVTVSWNSGALTSGVHTFPAVLQSSGLYSLSSVVTVPSSSLGTQTYICNVNHKPSNTKVDKKVEPKSC
heavy: EVQLQQSGAELMKPGASVKISCKASGYTFSDYWIEWVKQRPGHGLEWIGEILPGSGSTNYHERFKGKATFTADTSSSTAYMQLNSLTSEDSGVYYCLHGNYDFDGWGQGTTLTVSSASTKGPSVFPLAPSSKSTSGGTAALGCLVKDYFPEPVTVSWNSGALTSGVHTFPAVLQSSGLYSLSSVVTVPSSSLGTQTYICNVNHKPSNTKVDKKVEPKSC
light: QAVVTQEPSLTVSPGGTVTLTCRSSTGAVTTSNYANWVQQKPGQAPRGLIGGTNKRAPWTPARFSGSLLGDKAALTLLGAQPEDEAEYFCALWYSNLWVFGGGTKLTVLGQPKAAPSVTLFPPSSEELQANKATLVCLISDFYPGAVTVAWKADSSPVKAGVETTTPSKQSNNKYAASSYLSLTPEQWKSHRSYSCQVTHEGSTVEKTVAPTECS
notes: Control engager; HEL = hen egg lysozyme; Same CD3 arm as PR004384; also called control anti-HELxCD3 Bispecific T cell engager
Regarding B2, the binding result in assay [4] is given as “no binding”.
